The values below come from publication PMC8693863.

This assay addresses Myomaker (MYMK) (mouse (endogenous in primary myoblasts)) (UniProt Q9D1N4). The assay can be described thus: proximity ligation; Duolink PLA on primary mouse myoblasts fixed with 4% PFA, 24 h after DMSO (Ctrl) or ERKi; antibody pairs anti-TMEM8C + anti-CaMKII, or anti-CaMKII + anti-Rac1; mean fluorescent intensity normalized to nuclei number per field.
Chain of UniProt Q9D1N4 (Q9D1N4 whole entry): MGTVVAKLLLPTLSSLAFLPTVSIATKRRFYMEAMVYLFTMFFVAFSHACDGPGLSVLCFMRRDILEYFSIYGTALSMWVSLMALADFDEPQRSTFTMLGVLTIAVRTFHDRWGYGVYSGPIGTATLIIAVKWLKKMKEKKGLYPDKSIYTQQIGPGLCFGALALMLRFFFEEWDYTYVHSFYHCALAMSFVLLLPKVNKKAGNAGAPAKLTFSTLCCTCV

As for “CaMKII (from UniProt Q6PHZ2 1-499) (natural protein)”, the fold increase of PLA signal mean fluorescent intensity, ERKi against DMSO control turned out to be 2.9 fold.
